From PMC4201622

What was measured:
[1] = target: RPA70 DBD-F (N-terminal domain) fused to MBP (UniProt P27694 1-120); experiment: EMSA
[2] = target: RPA heterotrimer (RPA70/RPA32/RPA14), full length (UniProt P27694;P15927;P35244 1-616;1-270;1-121); experiment: EMSA
Chain of RPA heterotrimer (RPA70/RPA32/RPA14), full length (P27694 whole entry, chain 1 of 3): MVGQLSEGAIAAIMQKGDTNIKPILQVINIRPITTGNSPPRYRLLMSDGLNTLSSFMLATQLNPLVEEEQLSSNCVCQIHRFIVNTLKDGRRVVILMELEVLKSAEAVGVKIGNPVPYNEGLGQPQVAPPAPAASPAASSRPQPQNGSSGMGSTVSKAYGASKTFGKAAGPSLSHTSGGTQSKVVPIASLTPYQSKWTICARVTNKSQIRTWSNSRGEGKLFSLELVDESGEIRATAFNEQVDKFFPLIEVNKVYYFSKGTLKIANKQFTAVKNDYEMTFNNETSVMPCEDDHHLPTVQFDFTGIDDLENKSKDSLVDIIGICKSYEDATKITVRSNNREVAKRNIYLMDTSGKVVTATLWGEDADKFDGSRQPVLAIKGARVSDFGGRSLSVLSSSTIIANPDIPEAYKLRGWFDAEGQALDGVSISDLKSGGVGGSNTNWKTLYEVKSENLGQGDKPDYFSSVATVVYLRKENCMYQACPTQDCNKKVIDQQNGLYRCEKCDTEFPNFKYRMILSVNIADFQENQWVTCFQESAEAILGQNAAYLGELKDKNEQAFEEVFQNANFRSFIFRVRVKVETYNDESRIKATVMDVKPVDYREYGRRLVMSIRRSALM
Chain of RPA heterotrimer (RPA70/RPA32/RPA14), full length (P15927 whole entry, chain 2 of 3): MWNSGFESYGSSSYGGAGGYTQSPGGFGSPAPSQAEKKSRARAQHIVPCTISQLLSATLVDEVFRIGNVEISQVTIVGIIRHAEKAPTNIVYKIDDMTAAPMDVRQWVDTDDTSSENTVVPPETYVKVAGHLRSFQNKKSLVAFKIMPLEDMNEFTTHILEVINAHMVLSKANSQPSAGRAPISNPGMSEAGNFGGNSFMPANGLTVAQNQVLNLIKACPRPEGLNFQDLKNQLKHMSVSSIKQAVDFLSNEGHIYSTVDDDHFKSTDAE
Chain of RPA heterotrimer (RPA70/RPA32/RPA14), full length (P35244 whole entry, chain 3 of 3): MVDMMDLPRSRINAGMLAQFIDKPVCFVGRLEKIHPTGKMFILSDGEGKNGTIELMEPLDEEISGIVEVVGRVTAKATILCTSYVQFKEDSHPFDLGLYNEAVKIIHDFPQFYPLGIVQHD

Chain of RPA70 DBD-F (N-terminal domain) fused to MBP (P27694 1-120): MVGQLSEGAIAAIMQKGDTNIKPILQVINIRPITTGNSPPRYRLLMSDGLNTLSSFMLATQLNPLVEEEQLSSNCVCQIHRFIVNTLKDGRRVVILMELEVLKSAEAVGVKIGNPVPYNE

B1: polyT 30mer (ssDNA)
DNA: TTTTTTTTTTTTTTTTTTTTTTTTTTTTTT
B1: binds [1]; binds [2].
